# In patent US20090263395:
# Target: Histone H1 (UPSTATE, Lake Placid, N.Y.)
row,Protein,"kinase activity (immune complex kinase assay, [gamma-32P]-ATP)"
1,"A2282 protein, wild type (A2282V1, MELK), HA-tagged, immunoprecipitated from HEK 293 cells (protein) MKDYDELLKYYELHETIGTGGFAKVKLACHILTGEMVAIKIMDKNTLGSDLPRIKTEIEALKNLRHQHICQLYHVLETANKIFMVLEYCPGGELFDYIISQDRLSEEETRVVFRQIVSAVAYVHSQGYAHRDLKPENLLFDEYHKLKLIDFGLCAKPKGNKDYHLQTCCGSLAYAAPELIQGKSYLGSEADVWSMGILLYVLMCGFLPFDDDNVMALYKKIMRGKYDVPKWLSPSSILLLQQMLQVDPKKRISMKNLLNHPWIMQDYNYPVEWQSKNPFIHLDDDCVTELSVHHRNNRQTMEDLISLWQYDHLTATYLLLLAKKARGKPVRLRLSSFSCGQASATPFTDIKSNNWSLEDVTASDKNYVAGLIDYDWCEDDLSTGAATPRTSQFTKYWTESNGVESKSLTPALCRTPANKLKNKENVYTPKSAVKNEEYFMFPEPKTPVNKNQHKREILTTPNRYTTPSKARNQCLKETPIKIPVNSTGTDKLMTGVISPERRCRSVELDLNQAHMEETPKRKGAKVFGSLERGLDKVITVLTRSKRKGSARDGPRRLKLHYNVTTTRLVNPDQLLNEIMSILPKKHVDFVQKGYTLKCQTQSDFGKVTMQFELEVCQLQKPDVVGIRRQRLKGDAWVYKRLVEDILSSCKV",wild type and T478A proteins possessing intact kinase domain was observed phosphorylated Histone H1 in vitro
2,"A2282 protein D150A mutant, HA-tagged (protein) MKDYDELLKYYELHETIGTGGFAKVKLACHILTGEMVAIKIMDKNTLGSDLPRIKTEIEALKNLRHQHICQLYHVLETANKIFMVLEYCPGGELFDYIISQDRLSEEETRVVFRQIVSAVAYVHSQGYAHRDLKPENLLFDEYHKLKLIAFGLCAKPKGNKDYHLQTCCGSLAYAAPELIQGKSYLGSEADVWSMGILLYVLMCGFLPFDDDNVMALYKKIMRGKYDVPKWLSPSSILLLQQMLQVDPKKRISMKNLLNHPWIMQDYNYPVEWQSKNPFIHLDDDCVTELSVHHRNNRQTMEDLISLWQYDHLTATYLLLLAKKARGKPVRLRLSSFSCGQASATPFTDIKSNNWSLEDVTASDKNYVAGLIDYDWCEDDLSTGAATPRTSQFTKYWTESNGVESKSLTPALCRTPANKLKNKENVYTPKSAVKNEEYFMFPEPKTPVNKNQHKREILTTPNRYTTPSKARNQCLKETPIKIPVNSTGTDKLMTGVISPERRCRSVELDLNQAHMEETPKRKGAKVFGSLERGLDKVITVLTRSKRKGSARDGPRRLKLHYNVTTTRLVNPDQLLNEIMSILPKKHVDFVQKGYTLKCQTQSDFGKVTMQFELEVCQLQKPDVVGIRRQRLKGDAWVYKRLVEDILSSCKV",completely abolished in D150A protein
3,"A2282 protein T478A mutant, HA-tagged (protein) MKDYDELLKYYELHETIGTGGFAKVKLACHILTGEMVAIKIMDKNTLGSDLPRIKTEIEALKNLRHQHICQLYHVLETANKIFMVLEYCPGGELFDYIISQDRLSEEETRVVFRQIVSAVAYVHSQGYAHRDLKPENLLFDEYHKLKLIDFGLCAKPKGNKDYHLQTCCGSLAYAAPELIQGKSYLGSEADVWSMGILLYVLMCGFLPFDDDNVMALYKKIMRGKYDVPKWLSPSSILLLQQMLQVDPKKRISMKNLLNHPWIMQDYNYPVEWQSKNPFIHLDDDCVTELSVHHRNNRQTMEDLISLWQYDHLTATYLLLLAKKARGKPVRLRLSSFSCGQASATPFTDIKSNNWSLEDVTASDKNYVAGLIDYDWCEDDLSTGAATPRTSQFTKYWTESNGVESKSLTPALCRTPANKLKNKENVYTPKSAVKNEEYFMFPEPKTPVNKNQHKREILTTPNRYTTPSKARNQCLKEAPIKIPVNSTGTDKLMTGVISPERRCRSVELDLNQAHMEETPKRKGAKVFGSLERGLDKVITVLTRSKRKGSARDGPRRLKLHYNVTTTRLVNPDQLLNEIMSILPKKHVDFVQKGYTLKCQTQSDFGKVTMQFELEVCQLQKPDVVGIRRQRLKGDAWVYKRLVEDILSSCKV",wild type and T478A proteins possessing intact kinase domain was observed phosphorylated Histone H1 in vitro
4,"A2282 protein T167A mutant, HA-tagged (protein) MKDYDELLKYYELHETIGTGGFAKVKLACHILTGEMVAIKIMDKNTLGSDLPRIKTEIEALKNLRHQHICQLYHVLETANKIFMVLEYCPGGELFDYIISQDRLSEEETRVVFRQIVSAVAYVHSQGYAHRDLKPENLLFDEYHKLKLIDFGLCAKPKGNKDYHLQACCGSLAYAAPELIQGKSYLGSEADVWSMGILLYVLMCGFLPFDDDNVMALYKKIMRGKYDVPKWLSPSSILLLQQMLQVDPKKRISMKNLLNHPWIMQDYNYPVEWQSKNPFIHLDDDCVTELSVHHRNNRQTMEDLISLWQYDHLTATYLLLLAKKARGKPVRLRLSSFSCGQASATPFTDIKSNNWSLEDVTASDKNYVAGLIDYDWCEDDLSTGAATPRTSQFTKYWTESNGVESKSLTPALCRTPANKLKNKENVYTPKSAVKNEEYFMFPEPKTPVNKNQHKREILTTPNRYTTPSKARNQCLKETPIKIPVNSTGTDKLMTGVISPERRCRSVELDLNQAHMEETPKRKGAKVFGSLERGLDKVITVLTRSKRKGSARDGPRRLKLHYNVTTTRLVNPDQLLNEIMSILPKKHVDFVQKGYTLKCQTQSDFGKVTMQFELEVCQLQKPDVVGIRRQRLKGDAWVYKRLVEDILSSCKV",This activity was severely compromised in T167A mutant
